Patent WO2020003077A1 (dated 2020)
Substitutions are numbered along the chain they refer to. In names and notes the source's numbering stands.

What was measured:
human thrombin [1] = biological target: T1, human thrombin (human, UniProt P00734 314-363; P00734 364-622); experiment: cell-based or functional assay
prothrombin = prothrombin (UniProt P00734 44-622); experiment: ForteBio Octet, immobilized IgG
human thrombin [2] = biological target: T1, human thrombin; experiment: standard ELISA binding assay

B1: wild-type anti-exosite 1 IgA antibody (antibody, V domains shown)
VH: QVQLIQSGSAVKKPGASVRVSCKVSGYTLTEAAIHWVRQAPGKGLEWMGGLDPQDGETVYAQQFKGRVTMTEDRSTDTAYMEVNNLRSEDTATYYCTTGDFSEFEPFSMDYFHFWGQGTVVTVAS
VL: EIVLTQSPATLSLSPGERATLSCRASQNVSSFLAWYQHKPGQAPRLLIYDASSRATDIPIRFSGSGSGTDFTLTISGLEPEDFAVYYCQQRRSWPPLTFGGGTKVEIKR
- thrombin hydrolysis of FVIII (feedback activation of thrombin via Xase complex), antibody effect (human thrombin [1]): 7 fold decrease
- thrombin hydrolysis of platelet receptor PAR-1 peptide (activation of platelets), antibody effect (human thrombin [1]): 15 fold decrease

B2: synthetic anti-exosite 1 IgG antibody (antibody, V domains shown)
VH: B1 VH
VL: B1 VL
notes: also called synthetic IgG; anti-exosite IgG antibody
- binding result (prothrombin): no binding (tested: 500nM)

B3: synthetic anti-exosite 1 IgG S30A variant antibody (antibody, name in Kabat numbering, V domains shown)
VH: B1 VH
VL: B1 VL with S30A
notes: also called ichorcumab S30A; ichorcumab
- binding result (human thrombin [2]): binds
